Data from patent US20190183966A1.

The substances below were run against human FGF21 receptor (FGFR1) stably expressed on PathHunter U2OS cells (human) (UniProt P11362) (assay: cell-based or functional assay).
human FGF21 receptor (FGFR1) stably expressed on PathHunter U2OS cells (human), sequence (P11362 22-822): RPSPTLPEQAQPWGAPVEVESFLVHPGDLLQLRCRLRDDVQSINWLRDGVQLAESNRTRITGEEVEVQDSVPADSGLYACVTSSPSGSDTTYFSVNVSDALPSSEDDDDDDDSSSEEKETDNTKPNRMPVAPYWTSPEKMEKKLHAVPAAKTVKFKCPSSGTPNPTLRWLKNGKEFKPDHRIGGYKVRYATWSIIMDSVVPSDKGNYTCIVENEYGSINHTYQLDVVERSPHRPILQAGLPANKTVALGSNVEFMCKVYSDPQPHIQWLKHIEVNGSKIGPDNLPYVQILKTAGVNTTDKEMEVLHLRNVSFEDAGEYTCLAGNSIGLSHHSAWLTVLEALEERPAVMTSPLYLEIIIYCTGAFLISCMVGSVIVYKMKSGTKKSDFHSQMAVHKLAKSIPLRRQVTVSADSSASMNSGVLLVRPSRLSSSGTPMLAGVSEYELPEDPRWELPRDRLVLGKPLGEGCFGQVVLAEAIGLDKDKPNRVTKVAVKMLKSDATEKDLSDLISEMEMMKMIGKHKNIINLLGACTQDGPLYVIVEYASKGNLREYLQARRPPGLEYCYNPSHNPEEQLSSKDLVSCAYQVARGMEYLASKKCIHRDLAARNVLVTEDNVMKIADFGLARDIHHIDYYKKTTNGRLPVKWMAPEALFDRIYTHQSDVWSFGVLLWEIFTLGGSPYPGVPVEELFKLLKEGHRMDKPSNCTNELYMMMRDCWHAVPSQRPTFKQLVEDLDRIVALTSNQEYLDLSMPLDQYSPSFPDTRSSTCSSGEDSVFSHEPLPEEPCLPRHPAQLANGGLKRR

Row | EC50, recruitment of the co-receptor beta-Klotho [µg/mL] | Substance
1 | 0.4 | VitD-(3)-PEG2K-FGF21 (from UniProt Q9NSA1 32-209) (ligand)
2 | 0.13 | VitD-(25)-PEG2K-FGF21 (from UniProt Q9NSA1 32-209) (ligand)
3 | 0.16 | FGF21 protein with I3C substitution and His6 tag (from UniProt Q9NSA1 32-209) (ligand)
